Measurements from publication PMC7707817.

What was measured:
[1] = biological target: ClpP+C (E. coli ClpP C91V, C113A with a cysteine appended after Asn193) (E. coli); experiment: cross-linking; E613CClpA‡ (4 µM) and ClpP+C (9.6 µM) mixed; 50 mM HEPES-KOH pH 7, 300 mM NaCl, 20 mM MgCl2, 10% glycerol, 5 mM EDTA; 5 mM ATPγS, 200 µM bismaleimidoethane (BMOE), room temperature, 45 min; quenched with 50 mM DTT; peak-1 pool of Superdex-200 SEC read by reducing SDS-PAGE (Coomassie)
[2] = biological target: ClpP+C (E. coli ClpP C91V, C113A with a cysteine appended after Asn193) (E. coli); experiment: SEC; Superdex-200 of the quenched cross-linking reaction; 50 mM HEPES-KOH pH 7.5, 300 mM NaCl, 20 mM MgCl2, 10% glycerol, 2 mM TCEP; peak 2 = uncrosslinked ClpP+C

| Substance | percent of ClpA crosslinked to ClpP [1] [%] | stoichiometry N [2] |
| --- | --- | --- |
| E613C ClpA‡ (E. coli ClpAΔC9 with C47S, C203S, C243S and E613C) (from UniProt P0ABH9 1-749) (enzyme) | 90 | – |
| ClpP+C (E. coli ClpP C91V, C113A with a cysteine appended after Asn193) (enzyme) | – | 14 |
